B1: MFF (parent)
chain: MAEISRIQYEMEYTEGISQRMRVP

Variants of: B1
Assay: protein stability index of a GFP-peptide fusion (GPS, HEK-293T) (PSI 1-6); higher = more stable
Settings: c terminus: a fixed tail appended
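Further: lentivirally expressed fusions sorted by FACS into six bins by GFP to DsRed ratio, PSI derived from sequencing read proportions per bin multiplied by bin number.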

Protein stability index, by site and new letter:
M11: D 3.61; G 3.28; S 3.19; P 3.2; T 3.15; N 3.78; Y 2.67; L 2.37; Q 3.35; H 3.38; A 3.68; V 2.89; W 1.99; K 3.27; C 3.04; I 2.16; E 4.06; F 2.35; R 3.19
Q8: Y 1.75; G 2.9; F 1.58; H 2.47; S 2.71; W 1.49; E 3.02; K 2.13; T 2.38; A 2.31; D 2.85; C 1.9; P 3.03; R 2.21; M 1.94; L 1.6; N 2.85; I 2.52; V 1.45
E12: G 2.26; Y 1.76; L 1.74; F 1.34; H 2.26; P 2.81; Q 1.87; M 1.84; C 1.98; K 2.64; W 2.12; S 2.42; R 2.31; D 2.53; N 2.4; A 1.82; T 1.86; I 1.28; V 1.76
E10: M 2.08; Q 2.76; H 2.42; K 2.66; P 3.04; S 2.74; D 2.74; N 2.55; F 1.96; V 1.89; R 2.05; Y 2.09; A 2.15; I 1.6; T 1.99; W 2.72; C 1.99; G 2.67; L 1.66
S5: I 2.11; V 2.02; L 2.17; K 2.17; R 2.75; Q 2.36; P 3.52; T 2.02; W 2.46; Y 1.6; N 2.53; M 1.34
T14: D 4.16; C 2.24; A 2.68
Y9: M 2.42; Q 3.35; C 2.78; D 3.85; V 2.15; P 3.57; A 3.31; S 3.42; G 3.6; K 2.95; W 2.28; N 3.07; T 3.22; I 1.71; R 2.88; F 2.11; L 2.28; E 3.6; H 3.09
Y13: C 3.22; T 3.46; G 3.66; N 3.45; S 3.79; P 3.69; I 2.33; Q 3.35; A 2.73; M 2.67; F 2.41; E 3.32; R 2.71; V 3.12; D 3.95; H 3.26; K 2.96; L 2.62; W 2.77
R6: C 2.97; H 3; L 1.71; M 2.41; P 3.36; S 3.37; A 3.16; K 3.15; D 3.28; Q 3.34; Y 1.53; F 2.06; I 1.63; E 3.42; W 1.95; V 2.03; G 3.36; T 2.93; N 3.27
I7: A 3.22; R 3.33; Y 2.58; V 2.64; Q 3.43; N 3.6; E 4.11; M 2.93; L 2.29; W 2.02; T 3.4; D 3.8; G 3.03; K 3.34; F 2.69; H 3; S 3.51; P 3.37; C 2.56
